Where a chain is given by its changes, count along the chain named.
B1: Murine anti-63A10 (antibody, V domains shown)
VH: QVQLQQSGAELARPGASVKMSCKASGYTFISFTMHWVKQRPGQGLEWIGYINPNSGYTKYNQKFKDKATLTAGQSSSTAYMQLSSLTSEDSAVYYCTRGGGRGFAYWGQGTLVTVSA
VL: DILMTQSPSSMSVSLGDTVTITCHASQDINSNIGWLQQKPGKSFKALIYHGTNLEDGVPSRFSGSGSGADYSLTISSLESEDFADYYCVQYAQFPFTFGSGTKLEIK
notes: murine hybridoma antibody; also called 63A10A7
B2: Murine anti-64F1 (antibody, V domains shown)
VH: B1 VH with I30S, F32Y, V37A, N54S, G73D, Q74K, A92I, T97A
VL: QIVLTQSPAIMSASPGERVTMTCSASSSVSYMYWYQQKPGSSPRLLIYDTSNLASGVPVRFSGSGSGTSYSLTISRVEAEDAATYYCQQWSSYSLTFGAGTKLELK
notes: murine hybridoma antibody; also called 64F1F8
B3: Chimeric antibody c63A10A7 (antibody, human IgG1, V domains shown)
VH: B1 VH
VL: B1 VL
notes: also called chimeric antibody 63A10
B4: Humanized antibody h63A10A7-25 (antibody, human IgG1, V domains shown)
VH: QVQLVQSGAEVKKPGASVKVSCKASGYTFISFTMHWVKQRPGQGLEWIGYINPNSGYTKYNQKFKDKATLTRDTSTSTVYMELSSLRSEDTAVYYCTRGGGRGFAYWGQGTLVTVSS
VL: B1 VL with M11L, V13A, L15V, T18R, L36Y, S72T, E79Q, S80P, D85T, S100Q
notes: Human IgG1 constant region, human kappa constant region
B5: Humanized antibody h63A10A7-18 (antibody, human IgG1, V domains shown)
VH: B4 VH with R72A, T74Q, V79A
VL: B1 VL with M11L, V13A, L15V, T18R, S72T, E79Q, S80P, D85T, S100Q
notes: as for B4
B6: Humanized antibody h63A10A7-26 (antibody, human IgG1, V domains shown)
VH: B4 VH
VL: DILMTQSPSSLSASVGDRVTITCHASQDINSNIGWYQQKPGKSFKALIYHGTNLEDGVPSRFSGSGSGADFTLTISSLQPEDFATYYCVQYAQFPFTFGQGTKLEIK
notes: as for B4
B7: Humanized antibody h63A10A7-17 (antibody, human IgG1, V domains shown)
VH: B4 VH
VL: B6 VL with Y36L, F71Y
notes: as for B4
B8: Humanized antibody h63A10A7-20 (antibody, human IgG1, V domains shown)
VH: B4 VH with K38R, R40A
VL: B6 VL with Y36L, F71Y
notes: as for B4
B9: Humanized antibody h63A10A7-22 (antibody, human IgG1, V domains shown)
VH: B4 VH
VL: B6 VL with L3Q, Y36L, F71Y
notes: as for B4
B10: Humanized antibody h63A10A7-38 (antibody, human IgG1, V domains shown)
VH: B4 VH with K38R, R40A
VL: B6 VL with L3Q, Y36L, F71Y
notes: as for B4
B11: Humanized antibody h63A10A7-24 (antibody, human IgG1, V domains shown)
VH: B4 VH
VL: B6 VL with Y36L, A69T, F71Y
notes: as for B4
B12: Humanized antibody h63A10A7-23 (antibody, human IgG1, V domains shown)
VH: B4 VH
VL: B6 VL with Y36L, S43A, F44P, F71Y
notes: as for B4
B13: Humanized antibody h63A10A7-39 (antibody, human IgG1, V domains shown)
VH: B4 VH with K67R, A68V
VL: B6 VL with L3Q, Y36L, F71Y
notes: as for B4
B14: Humanized antibody h63A10A7-19 (antibody, human IgG1, V domains shown)
VH: B4 VH with I48M, L70M
VL: B6 VL with Y36L, F71Y
notes: as for B4
B15: Humanized antibody h63A10A7-21 (antibody, human IgG1, V domains shown)
VH: B4 VH with K67R, A68V
VL: B6 VL with Y36L, F71Y
notes: as for B4
B16: Humanized antibody h63A10A7-37 (antibody, human IgG1, V domains shown)
VH: B4 VH with I48M, L70M
VL: B6 VL with L3Q, Y36L, F71Y
notes: as for B4

target: T1, human EGFRvIII-hFc protein (human, UniProt P00533 25-645); test: ELISA, coated EGFRvIII-hFc, antibody 0.01 nM
T1 construct: extracellular domain; made in HEK293 cells, purified on protein A; also called immunogen A; hFc-tagged EGFRvIII protein; not shown: human IgG Fc fragment (hFc) of the pCpC vector
Description: (§1) The purified immunogen A (EGFRvIII-hFc) obtained in example 1 (for the preparation method, see step (I) in example 1) is diluted with PBS to a final concentration of 1.0 μg/mL, and then added to a 96-well ELISA plate at 100 μl/well. The plate is sealed with a plastic film and incubated at 4° C. overnight. The next day, the plate is washed twice with a plate washing solution [PBS+0.01% (v/v) Tween20], and added with a blocking solution [PBS+0.01% (v/v) Tween20+1% (w/w) BSA] for blocking 2 hours at room temperature. The blocking solution is discarded, and the purified EGFRvIII antibody obtained in example 2 is added at 100 μl/well. The plate is incubated for 2 hours at 37° C., and then washed 3 times with the plate washing solution [PBS+0.01% (v/v) Tween20]. The plate is added with an HRP (horseradish peroxidase) labeled secondary antibody (purchased from Sigma), incubated at 37° C. for 2 hours, and then washed 3 times with the plate washing solution [PBS+0.01% (v/v) Tween20]. The plate is added with 100 μl of TMB substrate/well, incubated for 30 minutes at room temperature, and then added with 100 μl of stopping solution (1.0N HCl)/well. A450 nm value is read using an ELISA plate reader (SpectraMax 384plus, purchased from Molecular Device), and the results are shown in FIG. 6 and table 10.

Row | Binder | OD450 nm
1 | B1 | 0.17
2 | B2 | 0.16

target: T1, human EGFRvIII-hFc protein; test: ELISA, coated EGFRvIII-hFc, antibody 100 nM
Description: as §1

Row | Binder | OD450 nm
3 | B1 | 3.71
4 | B2 | 3.73

target: T2, wild-type EGFR protein on the surfaces of A431 tumor cells and normal human primary hepatocytes (human, UniProt P00533 25-1210); test: FACS, MFI on A431 cells over MFI on normal primary hepatocytes
T2 construct: whole, on cells; Same protein on two cell types; also called human epidermal growth factor receptor; her-1
Description: (§2) The preparation of U87MG-EGFRvIII required for FACS detection is as described in the preparation of the immunogen B in example 1. Normal human primary hepatocytes are purchased from BioreclamationIVT, and A431 tumor cells are purchased from ATCC. The recovered hepatocytes are directly used for FACS detection, and the recovered U87MG-EGFRvIII and A431 cells are subjected to an expanded culture to 90% confluence in a T-75 cell culture flask; the medium is sucked out, and the cells are washed twice with a HBSS buffer (Hanks Balanced Salt Solution) (purchased from Invitrogen), and then treated with an enzyme-free cell dissociation solution (Versene solution: purchased from Life Technology) and collected. The cells are washed twice with the HBSS buffer and are counted, and then the cells are diluted with the HBSS buffer to 2×10⁶ cells/ml, added with 1% goat serum blocking solution, with the percentage being the mass percentage, and incubated on ice for 30 minutes, and then centrifugally washed twice with the HBSS buffer. The collected cells are resuspended to 2×10⁶ cells/mL with an FACS buffer (HBSS+2% FBS, with the percentage being the volume percentage), added to a 96-well FACS reaction plate at 100 μL/well, then added with 100 μL/well of the purified EGFRvIII antibody (samples to be tested) obtained in example 12, and incubated on ice for 2 hours. The plate is centrifugally washed twice with the FACS buffer, added with 100 μL/well of a 1:1000 diluted fluorescence (Alexa 488) labeled secondary antibody (purchased from Invitrogen), and incubated on ice for 1 hour. The plate is centrifugally washed 3 times with the FACS buffer, added with 100 μL/well of a fixing solution [4% (v/v) paraformaldehyde] to resuspend the cells, and centrifugally washed twice with the FACS buffer after 10 minutes. The cells are resuspended in 100 μL of the FACS buffer, and the results are detected and analyzed by FACS (FACS Calibur, purchased from BD). Data analysis is performed by using the software (CellQuest) to obtain the mean fluorescence intensity (MFI) of the cells. Data is further analyzed by using the software (GraphPad Prism5) to perform data fitting and calculate EC50.

Row | Binder | Selective window (MFIA431/Hepatocytes) [ratio]
5 | B3 | 15.8
6 | B4 | 17
7 | B5 | 16.5
8 | B6 | 14.1
9 | B7 | 15.6
10 | B8 | 15.4
11 | B9 | 15.8
12 | B10 | 4.2
13 | B11 | 19.6
14 | B12 | 6
15 | B13 | 7.5
16 | B14 | 8.7
17 | B15 | 14
18 | B16 | 5

target: T1, human EGFRvIII-hFc protein; test: ELISA, coated EGFRvIII-hFc, antibody 10 nM
Description: as §1

Row | Binder | OD450 nm
19 | B1 | 3.76
20 | B2 | 3.76

target: T1, human EGFRvIII-hFc protein; test: ELISA, coated EGFRvIII-hFc, antibody 0.0001 nM
Description: as §1

Row | Binder | OD450 nm
21 | B1 | 0.08
22 | B2 | 0.08

target: T1, human EGFRvIII-hFc protein; test: ELISA, coated EGFRvIII-hFc, antibody 0.1 nM
Description: as §1

Row | Binder | OD450 nm
23 | B1 | 0.8
24 | B2 | 1

target: T1, human EGFRvIII-hFc protein; test: ELISA, coated EGFRvIII-hFc, antibody 0.001 nM
Description: as §1

Row | Binder | OD450 nm
25 | B1 | 0.09
26 | B2 | 0.09

target: T2, wild-type EGFR protein on the surfaces …; test: FACS, normal human primary hepatocytes
Description: as §2

Row | Binder | mean fluorescence intensity (MFI)
27 | B3 | 299
28 | B4 | 433
29 | B5 | 553
30 | B6 | 435
31 | B7 | 677
32 | B8 | 486
33 | B9 | 592
34 | B10 | 254
35 | B11 | 502
36 | B12 | 661
37 | B13 | 261
38 | B14 | 439
39 | B15 | 568
40 | B16 | 265

target: T2, wild-type EGFR protein on the surfaces …; test: FACS, A431 tumor cells
Description: as §2

Row | Binder | mean fluorescence intensity (MFI)
41 | B3 | 4730
42 | B4 | 7360
43 | B5 | 9140
44 | B6 | 6130
45 | B7 | 10600
46 | B8 | 7460
47 | B9 | 9380
48 | B10 | 1060
49 | B11 | 9860
50 | B12 | 4000
51 | B13 | 1960
52 | B14 | 3830
53 | B15 | 7930
54 | B16 | 1320

target: T1, human EGFRvIII-hFc protein; test: ELISA, coated EGFRvIII-hFc, antibody 1 nM
Description: as §1

Row | Binder | OD450 nm
55 | B1 | 3.42
56 | B2 | 3.51
